Measured values from the nanobody polyreactivity screen of Harvey et al. (2022).

Assay: yeast display, Sf9 membrane polyspecificity reagent, FACS + sequencing; frameworks hold sequencing errors
Summary of the method: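 Galactose-induced (36–48 hours) yeast carrying a synthetic nanobody display library were exposed to 10% biotinylated, detergent-solubilized Sf9 membrane reagent at 4 °C for 1 hour. FACS followed streptavidin microbead enrichment, using low and high (top ~1%) gates for expression (anti-HA) and reagent binding (streptavidin). Colony PCR, MiSeq 2 × 250 sequencing and CDR-length filtering followed. Labels for polyreactivity reflect the gate of origin.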

| Sequence | polyreactivity (PSR sort gate) |
| --- | --- |
| QVQLVESGGGLVQAGGSLRLSCAPSGFIFGHNTMGWYRQAPGKECELVARITSSGGRTYYADSVKGRFTISRDNAKNTVYLQMNSLKPLDSAVYYCAAVSPNTAYDYWGQGTQVTVSS | high polyreactivity |
| QVQLVESGGGLVQAGGSLRLSCAPSGFTFDFYAMGWYRQEPGKATELFAAINSGGSTNYADSVKGRFTISRDNAKNTVYLQMNSLKPEDTAVYYCNADWFTPAQPWYRYFIRYDYWGQGSQVTVSS | low polyreactivity |
| QVQLVESGGGLVQAGGSLRLSCAPSGFTFGDYAMGWYRQAPGKERELVAAISWSGSNTYYADSVKGRFTLSRDNAKNTVYLQMNSLKPEDTAVYYCNADYDPEDMDYWGQGTQVTVSS | low polyreactivity |
| QVQLVESGGGLVQAGGSLRLSCAPSGFTFGYYAMGWYRQAPGKEMELVAAISSSGGSTYYADSVKGRFTISRDNAKKTVYLQMNSLKREVTAVYYCAVVVFSRVYRYFTSDYWGQGTQVTVSS | high polyreactivity |
| QVQLVESGGGLVQAGGSLRLSCAPSGFTFGYYAMGWYRQAPGKERELVAAITYSGGSTYYADSVKGRFTISRDNAKNTVYLQMNSLKPEDTAVYYCNAYDRRYYYGRWYGEFDYWGLGTQVTVSS | low polyreactivity |
| QVQLVESGGGLVQAGGSLRLSCAPSGFTFYKNAMGWYRQAPGKERELVAAITSSGGSTYYADSVKGRFTISRDNAKNTVYLQMNSLKPEDTAVYYCAAYPQAYIADYDYWGQGTQVTVSS | low polyreactivity |
| QVQLVESGGGLVQAGGSLRLSCAPSGFTLSTYAMGWYRQAPGKERELVAAISRSTDRTYYADSVKGRFTISRDNAKNTVYLQMNSLKPEDTAVYYCAAKSVYYLYRFYYWGQGSQVTVSS | high polyreactivity |
| QVQLVESGGGLVQAGGSLRLSCAPSGIIFYVYAIGWYRQAPGMERELVADITYGDRTNYADSVNGRFTISRDNAKNTVYLQMNSLKPEDTAVYYCAAKRNVLLGYTDQSLYDYWGQGTQVTVSS | low polyreactivity |
| QVQLVESGGGLVQAGGSLRLSCAPSGITFFYNTMGWYRQAPGKERELVAAISVSGGGTYYADSVKARFTISRDNAKNTVYLQMNSLKPEDTAVYYCNKVQVRQRRYDYWGQGTQVTVSS | low polyreactivity |
| QVQLVESGGGLVQAGGSLRLSCAPSGLIFGRYAMGWYRQAPGKERELVAAISSSGVRTYYADSVKGRFTISRDNAKNTVYLQMNSLKPEDTAVYYCAAAYWSSREDTVIKRYYWGQGTQVTVSS | high polyreactivity |
| QVQLVESGGGLVQAGGSLRLSCAPSGLTYLYAMGWYRQAPGKETELVAAISSSGGSTYYADSVKGRFTISRDNAKNTVSLQMNSLNPEDTGVYYCAAYTRGWLGYDYWGQGTQVTVSS | high polyreactivity |
| QVQLVESGGGLVQAGGSLRLSCAPSGRIFEIYAMGWYRQAPGKESELVAAISWRGVSTYYADSVKGRFTISRDNAKNTVYLQMNSLKPEDTAVYYCNKDVDYFWYVEYDYWGQGTQVTVSS | low polyreactivity |
| QVQLVESGGGLVQAGGSLRLSCAPSGRIFGGYTMGGYRQAHGKVRELVASINSGGSTAYADSVKGRFTISRDNAKNTVYLQMNSLKPEDTAVYYCNAYLVYSYSPSHYYGFGYWGQGTQVTVSS | high polyreactivity |
| QVQLVESGGGLVQAGGSLRLSCAPSGRIFPRNAMGWYRQAPGKERELVAAITKSGGSTYYADSVKGRFTISRDNAKNTVYLQMNSLKPEDTAVYYCNAVQYRNYYWGQGTQVTVSS | high polyreactivity |
| QVQLVESGGGLVQAGGSLRLSCAPSGRIFRKYAMGWYRQAPGKERELVAAINSRGGRTYYADSVKGRFTISRDNAKKTVYLQMNSLKPEDTAVYYCAASVGWGMDYWGQGTQVTVSS | high polyreactivity |
| QVQLVESGGGLVQAGGSLRLSCAPSGRIFSYNTVMGWYRQAPGKERELVAAITYSSASTYYADSVKGRFTISRDNAKNTVYLQMNSLKPEDTAVYYCAAVRYERGLWSDYWGQGTQVTVSS | high polyreactivity |
| QVQLVESGGGLVQAGGSLRLSCAPSGRIFYGYAMGWYRQAPGKEREFVARINVSGTSTFYADSVKGRFTISRDNAKNTVYLQMNSLKPEDTAVYYCAARGLPSNYYYYVHGYIMDYWGQGTHVTVSS | low polyreactivity |
| QVQLVESGGGLVQAGGSLRLSCAPSGRILGYYAMGWYRQAPGKERELVAAISSGDSTNYADSVKGRFTISRDNAKYTVYLQMNSLKPEDTAVYYCAAKGWIWNAYNYWGQGTQVTVSS | low polyreactivity |
| QVQLVESGGGLVQAGGSLRLSCAPSGRILRGYAMGWYRQAPGKDRELVAAISRRGGSTRYADSVKGRFTISRDNAKNTVYLQMNSLKPEDTAVYYCAPRYHPWCYDYWGQGTQVTVSS | high polyreactivity |
| QVQLVESGGGLVQAGGSLRLSCAPSGRILWFYAMGWYRQAPGKERELVAAISSSSGRTYYADSVKGRFTISRDNAKNTVYLQMYILKPEDSAVYYCAATHAVARPLEYDYWGQGTHVTVSS | low polyreactivity |
| QVQLVESGGGLVQAGGSLRLSCAPSGRISGWYAMGWYRQAPGKQRELVASISSSGGSTYYADSVKGRFTISRDNAKNSVYLQMNSLKPEDTAVYYCAVRRYNWSFYRGYDYWGQGTQVTVSS | high polyreactivity |
| QVQLVESGGGLVQAGGSLRLSCAPSGRTFGYNVMGWYRQAPGKERELVAAISYSGGSTYYADSVKGRFTISRDNAKNTVYLQMNSLKPEDTAVYYCAATVLSWYGDYPVYYWGQGTQVTVSS | low polyreactivity |

| Sequence | polyreactivity (PSR sort gate) |
| --- | --- |
| QVQLVESGGGLVQAGGSLRLSCAPSGRTFGYYGMGWYRQEPGKERELVASINFSSGSTFYADSVKGRFSISRDNAKNTVYLQMNSLKPEDTAVYYCAARAKAVRSYAYNYWGQGTQVTVSS | low polyreactivity |
| QVQLVESGGGLVQAGGSLRLSCAPSGRTFIFYAMGWSRQAPGKERELVAAISSSGSGTYYADSVKGRFTISRDNAKNTVYLQMNSLIPEDTAVYYCAADVVNSRRRPKYGYWGQGSQVTVSS | low polyreactivity |
| QVQLVESGGGLVQAGGSLRLSCAPSGRTFYSYAMGWYRHAPGKERELGAAITSSGGSTYYADSVKGRFTISRDNAKNTVYLQMNSLKPEDTAVYDCAAGKPYSSYWSWGYWTNLEDDYWGQGTQVNVSS | high polyreactivity |
| QVQLVESGGGLVQAGGSLRLSCAPSGRTLYGYAMGWYRQAPGKVSALVASFRSGGSTNYADSVKGRFTISLDNAKNTVYLQMNSLKPEDTAVYYCAADPYYSYGYYHAHGRDDGYWGQCTQVTVSS | low polyreactivity |
| QVQLVESGGGLVQAGGSLRLSCAPSGSIFKQYAMGWYRQAPGKERELVARITGSGGSTYYTDSVKGRFTISRDNAKNTVYLQMNSLKPEDTAVYYCNAGGRDAGYDYWGQGTQVTVSS | low polyreactivity |
| QVQLVESGGGLVQAGGSLRLSCAPSGSIFKYNTMGWYRQEPGKERELVATISGGGRTYYADSVKGRFTISRDNAKNTDYLQMNSLKPVDTAVYYCAARKRGNFTYDYWGQGTQVTVSS | high polyreactivity |
| QVQLVESGGGLVQAGGSLRLSCAPSGSIFPYAMGWYRQAPGKERELVAAITRSGASTYYADSVKGRFTISRDNAKNTVYLQLNSLKPEDTAVYYCAAYALRGVRYPYRVDFYYWGQGTQVTVSS | high polyreactivity |
| QVQLVESGGGLVQAGGSLRLSCAPSGSIFVTYAMGWYRQAPGKERELVAAISTSGGSTYADSVKGRFTISRVNAKNTVYLQMNSLKPEDTAVYYCNADDPGYAVPWYWFKYDYWGQGTQVTVSS | low polyreactivity |
| QVQLVESGGGLVQAGGSLRLSCAPSGSTFGDNAMGWYRQAPGKERELVAAISSGGGSTYYADSVKGRFTISRDNAKNTVYLQMNSLKPEDTAVYYCAADGTLTLYRYILDYWGQGTQVTVSS | low polyreactivity |
| QVQLVESGGGLVQAGGSLRLSCAPSGSTFLDNAMGLYRQAPGKESELVAAISRGGSTNYADSVKWLFTSSRDNAKNTVYLQMNSLKPEDTAVYYCAARVNYASRYWYYIIRGTIDYYWGQGTQVTVSS | low polyreactivity |
| QVQLVESGGGLVQAGGSLRLSCAPSGSTFPLYAMGWYRQAHGNEREFVAAIRWIGGSTYYADSVKGRFTISRDNAKNTVYLQMNSLKPEDTAVYYCAADYVVSAFDYWGQGTQVTVSS | low polyreactivity |
| QVQLVESGGGLVQAGGSLRLSCAPSGSTFQYYAMGWYRQAPGKESELVATITRRGDSTYYADSVKGRFTISRDSAKNTVYFQMNSLKPEDTAVYYCATRYWRSGYDWPYGSWGQGTQETVSS | high polyreactivity |
| QVQLVESGGGLVQAGGSLRLSCAPSGTIFYSYAMGWYRQAPGKERELVAAISQRGGSTYYADSVKGRFTISRDNAKNTVYLQMNSLKPEDTAVYYCNAVYRRAQFLYGYDYWGQGTQVTVSS | high polyreactivity |
| QVQLVESGGGLVQAGGSLRLSCAPSGYTFIFNVMGWYRQAPGKERELVAAISYSGGSTNYADSVKGRYTTSRDNAKNTVYFQMNSLKPEDTAVYYCNARTVSRNGYQDDYWGQGTQVTVSS | low polyreactivity |
| QVQLVESGGGLVQAGGSLRLSCAPTGSIFSVYAMGWYRHAPGKESELVATISSSGSTNYADSVKGRFTISRDNAKNTVYLQMNSLKPEDTAVYYCNVVGEYTQSDYSGYDYWGQGTQVTLSS | low polyreactivity |
| QVQLVESGGGLVQAGGSLRLSCASSGFIFGRNAMGWYRQAPGKERELVAGISSRGGRTYYADSVKGRFTISRDNAKITVYLEMNSLKPEDTAEYYCAAAGLTDYVRYDYWGQGTQVTVSS | high polyreactivity |
| QVQLVESGGGLVQAGGSLRLSCASSGFIFSSYAMGWYRQAPGKERELVARISLSGGSTFYADSVKGRFTISRDNAKNTVYFQMNSLKPEDTAVYYCAARDFSTHFSPMDYWGQGTQVTVSS | low polyreactivity |
| QVQLVESGGGLVQAGGSLRLSCASSGFIFSTSALGWYRQAPGKERELVAAISRTGGSTYYADSDKGRFTISRDNANNTVYLQMNSLKPEDTAVYYCAAAIYSFWYEYNYWGHGTQVTVSS | high polyreactivity |
| QVQLVESGGGLVQAGGSLRLSCASSGFSFLSYTMGWYRQAPGKERELVAAITSGGSTYYADSVKGRFTISRDNAKNTVYLQMNSLKPEDTAVYYCAVTYRWHTFIYDYWGQGTQVTVSS | low polyreactivity |
| QVQLVESGGGLVQAGGSLRLSCASSGFTFRGYAIGWYRQAPGKERELVAAITGGGSTNYADSVKGRFTISRDNAKNTVYLQMNSLKPEDTAVYYCAADASWALFAWAHYDYWGEGTQVTVSS | low polyreactivity |
| QVQLVESGGGLVQAGGSLRLSCASSGFTFRLNAMGWYRQAPGKERELVAAITRSGGNTYYADSVKGRFTISRDNAKNTVYLQMNSLKPEDTAVYYCAVRQLDRRSPKYNYWGQGTQVTVSS | high polyreactivity |
